Data reported in publication PMC3715405.

Target: T1, WT tetherin (human tetherin internally tagged with an HA epitope at amino acid 155) (human), Q10589
T1 chain: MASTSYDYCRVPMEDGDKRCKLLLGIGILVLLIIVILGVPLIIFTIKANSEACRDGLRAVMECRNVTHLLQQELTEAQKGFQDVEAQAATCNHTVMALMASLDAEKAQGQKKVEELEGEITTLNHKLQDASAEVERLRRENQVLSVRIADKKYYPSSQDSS
Experiment: non-reducing SDS-PAGE and western blot; lysates of 293T cells cotransfected with HIV-1 ΔVpu proviral plasmid and tetherin plasmids, lysed in non-reducing buffer, probed with anti-HA; shows disulphide-linked dimers
Settings: remark: other sources report otherwise

B1: WT tetherin (human tetherin internally tagged with an HA epitope at amino acid 155), Q10589 1-161 (natural protein)
chain: T1 chain
modifications: here or on the partner: glycosylphosphatidylinositol (GPI) membrane anchor at the C-terminus; heterogeneously glycosylated; glycosylphosphatidylinositol (GPI) membrane anchor at the C-terminus; heterogeneously glycosylated
stoichiometry N: 2
